{
  "source": "patent US20230391852A1",
  "about": "(US Dept. of Health and Human Services, published 2023)",
  "data": [
    {"target": "SARS-CoV-2 S protein trimer expressed on human A431 cells (SARS-CoV-2, UniProt P0DTC2 14-1273)", "assay": "flow cytometry on A431 cells expressing SARS-CoV-2 S (A431-CoV-2-S)", "units": {"percent of cells right of the dashed gate line": "%"}, "values": [
      {"binder": "7A3 VHH-hFc (Fc fusion, also called 7A3-hFc; NCI-CoV-7A3 VHH-hFc fusion protein) QVQLVESGGGSVQPGGSLRLSCVVSGYTSSSRYMGWFRQVPGKGLEWVSGIKRDGTNTYYADSVKGRFTISQDNAKNTVYLQMNSLKPEDTAMYYCAAGSWYNQWGYSMDYWGKGTQVTVSS", "percent of cells right of the dashed gate line": 99.5},
      {"binder": "2F7 VHH-hFc (Fc fusion, also called 2F7-hFc; NCI-CoV-2F7 VHH-hFc fusion protein) QVKLEESGGGSVQSGGSLRLSCTVSRDTNTNINRCMGWFRQAPGKGLETVATINRDGTNTYYTDAVKGRFTISQDNVKNTVYLQMNNLTPEDTGTYICNAMGRGSGSRCDNWDPNYWGQGTQVTVSS", "percent of cells right of the dashed gate line": 99.3},
      {"binder": "8A2 VHH-hFc (Fc fusion, also called NCI-CoV-8A2 VHH-hFc) AVQLVDSGGGSVQAGGSLRLSCAASGYTYSICTMGWYRQAPGEGLEWVSGINADGSNTHYTDSVKGRFTISRDNAKKTLYLQMNSLKPEDTAIYYCAAHGTYDKYAPCGGFAGTYTYWGQGTQVTVSS", "percent of cells right of the dashed gate line": 98.7},
      {"binder": "8A4 VHH-hFc (Fc fusion, also called 8A4-hFc; NCI-CoV-8A4 VHH-hFc fusion protein) EVQLVESGGGLVQPGESLRLSCEASGFTFSSVYMSWVRQAPGKGLEWISTIHPAGGSTYYADSMKDRFTISRDNAKNTLYLQMNSLKSEDTALYYCIIEALSGYRGPGTQVTVSS", "percent of cells right of the dashed gate line": 99.4},
      {"binder": "1B5 VHH-hFc (Fc fusion, also called 1B5-hFc; NCI-CoV-1B5 VHH-hFc fusion protein) DVQLVESGGGSVQAGGSLRLSCTGSRYTYSTYCMGWFRQAPGKEEEAVAIINSGGGEPYYGDSVKGRFTISQDRAKNTVYLQMDGLQPDDTAIYYCVAADSHNSRCYLGRSYVNYWGQGTQVTVSS", "percent of cells right of the dashed gate line": 99.1},
      {"binder": "1H6 VHH-hFc (Fc fusion, also called 1H6-hFc; NCI-CoV-1H6 VHH-hFc fusion protein) AVQLVDSGGGSVQAGGSLNLSCVASGTTLRNGCMAWFRQVPGKEREVVAIIIRATSYTDYADSVKGRFTISQDNAKNTVYLQMKSLTPEDTATYYCAATLYRVNCAKREFDKWGQGTQVTVSS", "percent of cells right of the dashed gate line": 99.5}
    ]}
  ]
}
